The results in this text go back to US20210139579A1.

This assay addresses human ROR1 (hROR1) on the cell surface (human) (UniProt Q01973). Briefly: cell-based or functional assay.

Chain of human ROR1 (hROR1) on the cell surface (human) (Q01973 30-937): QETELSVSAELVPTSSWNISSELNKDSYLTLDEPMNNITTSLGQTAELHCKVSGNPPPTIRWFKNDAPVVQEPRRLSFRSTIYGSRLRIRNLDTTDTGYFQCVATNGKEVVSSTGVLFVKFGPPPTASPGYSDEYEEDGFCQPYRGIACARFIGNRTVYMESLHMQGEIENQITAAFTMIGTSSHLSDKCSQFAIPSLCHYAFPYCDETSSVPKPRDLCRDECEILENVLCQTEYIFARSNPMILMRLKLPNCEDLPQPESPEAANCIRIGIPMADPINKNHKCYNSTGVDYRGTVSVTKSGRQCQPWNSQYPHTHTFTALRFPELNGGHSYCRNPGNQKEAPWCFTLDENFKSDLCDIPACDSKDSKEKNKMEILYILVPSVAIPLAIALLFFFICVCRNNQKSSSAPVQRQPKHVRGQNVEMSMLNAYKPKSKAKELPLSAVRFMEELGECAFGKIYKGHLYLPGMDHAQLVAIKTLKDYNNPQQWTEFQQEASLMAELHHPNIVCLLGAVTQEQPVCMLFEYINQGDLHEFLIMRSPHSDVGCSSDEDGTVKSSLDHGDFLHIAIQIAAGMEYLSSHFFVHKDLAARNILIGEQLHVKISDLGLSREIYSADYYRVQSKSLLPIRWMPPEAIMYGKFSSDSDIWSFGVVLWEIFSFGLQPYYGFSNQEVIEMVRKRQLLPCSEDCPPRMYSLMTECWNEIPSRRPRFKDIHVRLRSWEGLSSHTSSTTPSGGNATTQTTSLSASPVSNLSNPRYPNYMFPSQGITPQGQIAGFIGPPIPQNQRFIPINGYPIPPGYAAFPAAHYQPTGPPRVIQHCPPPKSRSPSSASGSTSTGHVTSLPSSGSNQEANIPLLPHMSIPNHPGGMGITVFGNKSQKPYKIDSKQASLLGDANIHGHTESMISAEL

The substance 2A2-G5-PNU (antibody) gave an IC50, in vitro cell killing of 697 cells of 0.125 µg/mL; an IC50, in vitro cell killing of A549 cells of 76.8 µg/mL; an IC50, in vitro cell killing of HS 578T cells of 1.78 µg/mL; an IC50, in vitro cell killing of HT-29 cells of 19.8 µg/mL. Also, the IC50, in vitro cell killing of MDA-MB-468 cells was found to be 0.727 µg/mL.
